Experimental data published in article PMC4777393, “Structural Basis for Recognition of Human Enterovirus 71 by a Bivalent Broadly Neutralizing Monoclonal Antibody” (PLoS Pathogens, 2016).
Substitutions are numbered along the chain they refer to.

Legend:
[1] = molecular target: EV71 procapsid (E-particle), inactivated; test: ELISA; conditions: read off a plot
[2] = molecular target: SP70 peptide (amino acid residues 208 to 222 of EV71 VP1) (UniProt Q66478); test: ELISA; conditions: read off a plot
[3] = molecular target: EV71 mature virion (F-particle), inactivated; test: ELISA; conditions: read off a plot
[4] = molecular target: EV71 virus-like particle (VLP); test: ELISA; conditions: read off a plot
SCARB2-Fc = SCARB2-Fc (UniProt Q14108); test: pull-down with SCARB2-Fc and anti-human Fc IgG conjugated beads, quantified by qRT-PCR; conditions: 4°C; parent: est. 100; read off a plot
[5] = molecular target: EV71/G082 wild-type virus (enterovirus 71 strain EV71/G082)
[6] = molecular target: EV71/G082 wild-type virus (enterovirus 71 strain EV71/G082); remark: listed apart in the source
[7] = molecular target: EV71/G082 wild-type virus (enterovirus 71 strain EV71/G082); remark: listed apart in the source
[8] = molecular target: T1, EV71 mature virion (F-particle), inactivated (Enterovirus A71, strain of the …); test: BLI; Octet RED 96; biotin-labelled inactivated F-particles on streptavidin tips; D5 IgG or Fab at 40 to 0.0128 μg/ml; kinetics buffer (PBS, 0.1% BSA, 0.02% Tween-20), room temperature; called avidities; conditions: both partners purified
T1 construct: VP1 of enterovirus 71, cut product of the polyprotein; PDB 3VBS is the crystal structure fitted into the map and may be of another strain; numbers count on: the mature VP1 chain; VP2 of enterovirus 71, cut product of VP0 of the polyprotein; numbers count on: the mature VP2 chain; VP3 of enterovirus 71, cut product of the polyprotein; numbers count on: the mature VP3 chain; VP4 of enterovirus 71, …
T1 chain 1: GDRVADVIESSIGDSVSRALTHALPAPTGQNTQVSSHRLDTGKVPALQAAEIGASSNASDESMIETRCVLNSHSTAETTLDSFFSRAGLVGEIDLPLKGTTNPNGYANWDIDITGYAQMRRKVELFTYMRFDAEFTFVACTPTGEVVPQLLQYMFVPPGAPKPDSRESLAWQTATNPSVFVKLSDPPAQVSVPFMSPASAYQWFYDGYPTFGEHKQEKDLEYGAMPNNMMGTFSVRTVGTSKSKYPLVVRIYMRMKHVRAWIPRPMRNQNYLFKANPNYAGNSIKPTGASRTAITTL
T1 chain 2: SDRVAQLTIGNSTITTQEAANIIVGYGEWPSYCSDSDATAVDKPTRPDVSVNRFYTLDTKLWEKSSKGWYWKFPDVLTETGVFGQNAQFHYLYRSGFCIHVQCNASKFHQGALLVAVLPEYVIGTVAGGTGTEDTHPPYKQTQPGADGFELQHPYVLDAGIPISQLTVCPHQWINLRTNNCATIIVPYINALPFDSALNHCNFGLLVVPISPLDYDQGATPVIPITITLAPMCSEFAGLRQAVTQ
T1 chain 3: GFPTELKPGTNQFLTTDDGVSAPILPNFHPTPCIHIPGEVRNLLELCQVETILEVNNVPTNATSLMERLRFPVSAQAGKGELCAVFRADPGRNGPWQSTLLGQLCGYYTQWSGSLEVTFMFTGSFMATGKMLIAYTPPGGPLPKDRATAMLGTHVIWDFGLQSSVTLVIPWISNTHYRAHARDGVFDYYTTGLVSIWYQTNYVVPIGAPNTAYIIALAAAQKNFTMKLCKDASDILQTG

[9] = molecular target: T2, SP70 peptide (amino acid residues 208 to 222 of EV71 VP1) (Enterovirus 71; stretch identical among …); test: ELISA; plates coated with 20 ng/well E-particle, F-particle or VLP or 100 ng/well SP70 peptide; serially diluted scFv 2 h at 37°C; detected with HRP anti-His antibody; conditions: both partners purified
T2 construct: VP1 of enterovirus 71, residues 208 to 222, corresponding to the GH-loop; Q66478 is strain BrCr; numbers count on: the mature VP1 chain
T2 chain: YPTFGEHKQEKDLEY

[10] = 6.25 ng/well, parent: est. 0.83
[11] = 6.25 ng/well, parent: est. 0.52

SCARB2-Fc, sequence (Q14108 whole entry): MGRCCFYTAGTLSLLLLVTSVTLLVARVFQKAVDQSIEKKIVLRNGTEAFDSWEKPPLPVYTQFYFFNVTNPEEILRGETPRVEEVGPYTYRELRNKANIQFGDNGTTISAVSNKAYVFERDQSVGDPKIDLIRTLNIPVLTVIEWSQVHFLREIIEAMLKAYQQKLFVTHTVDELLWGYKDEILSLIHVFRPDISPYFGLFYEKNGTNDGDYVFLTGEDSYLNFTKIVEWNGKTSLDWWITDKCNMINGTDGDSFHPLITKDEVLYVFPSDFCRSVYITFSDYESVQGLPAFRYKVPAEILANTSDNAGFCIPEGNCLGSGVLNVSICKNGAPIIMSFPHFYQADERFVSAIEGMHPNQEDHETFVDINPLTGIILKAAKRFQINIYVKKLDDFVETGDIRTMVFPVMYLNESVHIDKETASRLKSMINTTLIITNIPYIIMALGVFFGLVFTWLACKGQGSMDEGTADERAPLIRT

For “D5 wild-type single-chain variable fragment (scFv-WT) D104A”, the response ([1]; 400 ng/well, parent: est. 2.1) was 0.08 OD450nm, the response ([2]; 400 ng/well, parent: est. 3.1) was 0.05 OD450nm and the response ([3]; 400 ng/well, parent: est. 1.0) was 0.09 OD450nm. The response ([4]; 400 ng/well, parent: est. 1.8) was 0.05 OD450nm.

Molecule “D5 wild-type single-chain variable fragment (scFv-WT) F103A” has a response ([1]; 6.25 ng/well, parent: est. 1.8) of 0.82 OD450nm, a response ([1]; 25 ng/well, parent: est. 2.1) of 1.6 OD450nm and a response ([1]; 100 ng/well, parent: est. 2.2) of 2.2 OD450nm. It also gave a response ([1]; 400 ng/well, parent: est. 2.1) of 2.2 OD450nm, a response [2, 10] of 0.3 OD450nm and a response ([2]; 25 ng/well, parent: est. 2.0) of 0.95 OD450nm. It also gave a response ([2]; 100 ng/well, parent: est. 3.0) of 2.2 OD450nm, a response ([2]; 400 ng/well, parent: est. 3.1) of 2.7 OD450nm and a response [3, 11] of 0.18 OD450nm. It also gave a response ([3]; 25 ng/well, parent: est. 0.76) of 0.42 OD450nm, a response ([3]; 100 ng/well, parent: est. 0.88) of 0.7 OD450nm and a response ([3]; 400 ng/well, parent: est. 1.0) of 0.86 OD450nm. For the same molecule, the response ([4]; 6.25 ng/well, parent: est. 1.3) was 0.48 OD450nm, the response ([4]; 25 ng/well, parent: est. 1.6) was 1.1 OD450nm and the response ([4]; 100 ng/well, parent: est. 1.8) was 1.6 OD450nm. It also gave a response ([4]; 400 ng/well, parent: est. 1.8) of 1.7 OD450nm.

Work on “D5 wild-type single-chain variable fragment (scFv-WT) F105A” yielded a response ([1]; 400 ng/well, parent: est. 2.1) of 0.43 OD450nm, a response ([2]; 400 ng/well, parent: est. 3.1) of 0.05 OD450nm and a response ([3]; 400 ng/well, parent: est. 1.0) of 0.12 OD450nm. For the same molecule, the response ([4]; 400 ng/well, parent: est. 1.8) was 0.2 OD450nm.

“D5 wild-type single-chain variable fragment (scFv-WT) N100A” showed a response ([1]; 6.25 ng/well, parent: est. 1.8) of 1.7 OD450nm, a response ([1]; 25 ng/well, parent: est. 2.1) of 2.1 OD450nm and a response ([1]; 100 ng/well, parent: est. 2.2) of 2.4 OD450nm. For the same molecule, the response ([1]; 400 ng/well, parent: est. 2.1) was 2.2 OD450nm, the response [2, 10] was 0.43 OD450nm and the response ([2]; 25 ng/well, parent: est. 2.0) was 1.3 OD450nm. The response ([2]; 100 ng/well, parent: est. 3.0) was 2.7 OD450nm, the response ([2]; 400 ng/well, parent: est. 3.1) was 3 OD450nm and the response [3, 11] was 0.43 OD450nm. The response ([3]; 25 ng/well, parent: est. 0.76) was 0.67 OD450nm, the response ([3]; 100 ng/well, parent: est. 0.88) was 0.9 OD450nm and the response ([3]; 400 ng/well, parent: est. 1.0) was 1 OD450nm. It also gave a response ([4]; 6.25 ng/well, parent: est. 1.3) of 1.1 OD450nm, a response ([4]; 25 ng/well, parent: est. 1.6) of 1.4 OD450nm and a response ([4]; 100 ng/well, parent: est. 1.8) of 1.8 OD450nm. It also gave a response ([4]; 400 ng/well, parent: est. 1.8) of 1.8 OD450nm.

“D5 wild-type single-chain variable fragment (scFv-WT) W102A” was tested, and the response ([1]; 400 ng/well, parent: est. 2.1) was 0.3 OD450nm, the response ([2]; 400 ng/well, parent: est. 3.1) was 0.05 OD450nm and the response ([3]; 400 ng/well, parent: est. 1.0) was 0.1 OD450nm. The response ([4]; 400 ng/well, parent: est. 1.8) was 0.19 OD450nm.

“D5 wild-type single-chain variable fragment (scFv-WT) Y101A” showed a response ([1]; 400 ng/well, parent: est. 2.1) of 0.3 OD450nm, a response ([2]; 400 ng/well, parent: est. 3.1) of 0.05 OD450nm and a response ([3]; 400 ng/well, parent: est. 1.0) of 0.15 OD450nm.

EV71/G082 wild-type virus K218E gave a percent of parent (SCARB2-Fc) of 65%.

EV71/G082 wild-type virus K218T was tested, and the percent of parent (SCARB2-Fc) was 84%.

B1: D5 intact IgG (antibody, V domains shown)
VH: EVQLQQSGAELVKPGASVKLSCTASGFNIKDTYIHWVKQRPEQGLEWIGKIDPANGNTKYDPKFQDKATITADTSSNTAYLQLSSLTSEDTAVYYCANSNYWFDFDYWGQGTTLTVSS
VL: DVLMTQTPLSLPVSLGDQASISCRSSQSIVHSNGNTYLEWYLQKPGQSPKLLIYKVSNRFSGVPDRFSGSGSGTDFTLKISRVEADDVGVYYCYQGSHVPYTFGGGTKLEIK
notes: variable region of the D5 heavy chain (VH, 1-118 aa); constant region of the mouse IgG heavy chain; variable region of the D5 light chain (VL, 1-113 aa); constant region of the mouse light chain; also called MAb D5; mAb D5; source: D5 hybridoma (mouse)
B1 showed an IC50 of neutralization (50% inhibition of cell death, MTT assay), EV71/G082 [5] of 0.183 µg/mL, a Neutralization concentration (lowest antibody concentration that fully prevents CPE), EV71/G082 [5] of 0.313 µg/mL and an IC50 of neutralization of EV71 G082 on RD cells, post-attachment neutralization assay [6] of 10.1 nM. For the same molecule, the IC50 of neutralization of EV71 G082 (100 TCID50) on RD cells, standard neutralization assay, MTT [7] was 2.23 nM and the Kd [8] was 6 nM.

B2: D5 Fab (Fab, V domains shown)
VH: B1 VH
VL: B1 VL
notes: variable region of the D5 heavy chain (VH, 1-118 aa), as the heavy chain of m1; constant part of the Fab heavy chain left by papain; variable region of the D5 light chain (VL, 1-113 aa), as the light chain of m1; constant region of the mouse light chain; also called Fab of D5; D5 Fab fragment; source: papain digestion of D5 IgG, purified (Hitrap Protein G, Sephacryl S-100)
B2 was tested, and the IC50 of neutralization of EV71 G082 on RD cells, post-attachment neutralization assay [6] was 191 nM, the IC50 of neutralization of EV71 G082 (100 TCID50) on RD cells, standard neutralization assay, MTT [7] was 37.4 nM and the Kd [8] was 15 nM.

B3: D5 wild-type single-chain variable fragment (scFv-WT) (scFv, V domains shown)
VH: B1 VH
VL: B1 VL
notes: variable region of the D5 heavy chain (VH, 1-118 aa); 11-amino acid residue (GGGGS)2G linker; variable region of the D5 light chain (VL, 1-113 aa); Cloned in pET28b; also called wild-type scFv; VH-(GGGGS)2G-VL; source: E. coli BL21, purified from the soluble fraction (Ni-NTA)
B3: binds [9].

B4: D5 scFv-N100A (scFv, V domains shown)
VH: B1 VH with N100A
VL: B1 VL
notes: variable region of the D5 heavy chain (VH, 1-118 aa), as the VH of m3 with the stated change; 11-amino acid residue (GGGGS)2G linker; variable region of the D5 light chain (VL, 1-113 aa), as the VL of m3; Point mutant of m3 in the heavy chain CDR3; source: E. coli BL21, purified from the soluble fraction (Ni-NTA)
B4: binds [9].

B5: D5 scFv-F103A (scFv, V domains shown)
VH: B1 VH with F103A
VL: B1 VL
notes: as for B4
B5: binds [9].
